Values of other authors in PMC5012591.

Target: flagellar motor switch protein FliM (Escherichia coli) (UniProt P06974)
Chain of UniProt P06974 (P06974 whole entry): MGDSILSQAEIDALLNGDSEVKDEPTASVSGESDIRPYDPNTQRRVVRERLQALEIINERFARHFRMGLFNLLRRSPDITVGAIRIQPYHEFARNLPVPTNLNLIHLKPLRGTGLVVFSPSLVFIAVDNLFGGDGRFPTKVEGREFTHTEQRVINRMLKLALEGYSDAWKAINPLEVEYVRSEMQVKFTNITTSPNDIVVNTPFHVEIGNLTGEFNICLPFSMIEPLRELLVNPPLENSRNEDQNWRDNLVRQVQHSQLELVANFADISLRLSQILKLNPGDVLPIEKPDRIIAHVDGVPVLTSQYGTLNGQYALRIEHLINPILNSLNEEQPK

For CheY-P (from UniProt P0AE67), the Kd is listed as 3.06 µM.
